# From patent US20240287188A1 (KUMHO HT, published 2024)
# B1: chimeric anti-ICAM-1 antibody SI9 (mouse SI9 variable regions, human IgG4/kappa constant regions) (antibody)
# heavy: QVQLQQSGAELVRPGVSVKISCKGSGYTFTDYALHWVKQSHAKSLEWIGVISTYSGNTDYNQKFRGKATMTVDKSSTTAYLELARLTSEDSAIHYCARSLYFGSSGFDYWGQGTALTVSS
# light: DVVLTQTPLSLPVNLGDQASISCRSSQTLVYRNGNTYLHWYLQKAGQSPKLLIYKVSNRFSGVPDRFSGSGSGTDFTLKISRVEAEDLGVYFCSQNTHFPYTFGGGTKIKR
# notes: the hinge lies in the heavy chain; also called chimeric antibody SI9; SI9 Chimeric; not shown: human IgG4 heavy chain constant region, GenBank AIC59040.1 (printed), hinge 'CPSCP' modified to 'CPPCP' (position not pr); human kappa light chain constant region, GenBank AAA58989.1 (printed)
# B2: humanized anti-ICAM-1 antibody H17L3 (VH17 + VL3), human IgG4/kappa (antibody, V domains shown)
# VH: QVQLVQSGAEVKKPGASVKISCKGSGYTFTDYALHWVRQAPGQRLEWMGVISTYSGNTDYNQKFRGRATITVDTSASTAYMELSSLRSEDTAVYYCARSLYFGSSGFDYWGQGTALTVSS
# VL: DVVLTQTPLSSPVTLGQPASISCRSSQTLVYRNGNTYLHWYLQRAGQPPRLLIYKVSNRFSGVPDRFSGSGAGTDFTLKISRVEAEDVGVYFCSQNTHFPYTFGGGTKLEIKT
# notes: The Arg at the VL/CL junction is in neither entry
# B3: humanized anti-ICAM-1 antibody H17L4 (VH17 + VL4), human IgG4/kappa (antibody, V domains shown)
# VH: QVQLVQSGAEVKKPGASVKISCKGSGYTFTDYALHWVRQAPGQRLEWMGVISTYSGNTDYNQKFRGRATITVDTSASTAYMELSSLRSEDTAVYYCARSLYFGSSGFDYWGQGTALTVSS
# VL: DVVLTQTPLSSPVTLGQPASISCRSSQTLVYRNGNTYLHWYQQRPGQPPRLLIYKVSNRFSGVPDRFSGSGAGTDFTLKISRVEAEDVGVYFCSQNTHFPYTFGGGTKLEIKT
# notes: The Arg at the VL/CL junction is in neither entry; also called DNP007; DNP007 antibody (H17L4 antibody)
# B4: humanized anti-ICAM-1 antibody H17L1 (VH17 + VL1), human IgG4/kappa (antibody, V domains shown)
# VH: QVQLVQSGAEVKKPGASVKISCKGSGYTFTDYALHWVRQAPGQRLEWMGVISTYSGNTDYNQKFRGRATITVDTSASTAYMELSSLRSEDTAVYYCARSLYFGSSGFDYWGQGTALTVSS
# VL: DVVLTQSPLSLPVTLGQPASISCRSSQTLVYRNGNTYLHWYQQRPGQSPRLLIYKVSNRFSGVPDRFSGSGSGTDFTLKISRVEAEDVGVYFCSQNTHFPYTFGGGTKLEIKT
# B5: humanized anti-ICAM-1 antibody H5L3 (VH5 + VL3), human IgG4/kappa (antibody, V domains shown)
# VH: QVQLVQSGAEVKKPGASVKISCKASGYTFTDYALHWVRQAPGQRLEWMGVISTYSGNTDYNQKFRGRVTITVDKSATTAYMELSSLRSEDTAVYYCARSLYFGSSGFDYWGQGTALTVSS
# VL: DVVLTQTPLSSPVTLGQPASISCRSSQTLVYRNGNTYLHWYLQRAGQPPRLLIYKVSNRFSGVPDRFSGSGAGTDFTLKISRVEAEDVGVYFCSQNTHFPYTFGGGTKLEIKT
# notes: as for B2
# B6: humanized anti-ICAM-1 antibody H4L3 (VH4 + VL3), human IgG4/kappa (antibody, V domains shown)
# VH: QVQLVQSGAEVKKPGASVKVSCKASGYTFTDYALHWVRQAPGQRLEWIGVISTYSGNTDYNQKFRGRVTMTRDTSATTAYLELSSLRSEDTAVYYCARSLYFGSSGFDYWGQGTALTVSS
# VL: DVVLTQTPLSSPVTLGQPASISCRSSQTLVYRNGNTYLHWYLQRAGQPPRLLIYKVSNRFSGVPDRFSGSGAGTDFTLKISRVEAEDVGVYFCSQNTHFPYTFGGGTKLEIKT
# notes: as for B2
# Columns and labels:
# [1] = target: ICAM-1 expressed on the surface of the prostate cancer cell line Du145 (human) (UniProt P05362); assay: flow cytometry on Du145 cells expressing ICAM-1
# ICAM-1 expressed on the surface of the prostate cancer cell line Du145 (human), sequence (P05362 28-532): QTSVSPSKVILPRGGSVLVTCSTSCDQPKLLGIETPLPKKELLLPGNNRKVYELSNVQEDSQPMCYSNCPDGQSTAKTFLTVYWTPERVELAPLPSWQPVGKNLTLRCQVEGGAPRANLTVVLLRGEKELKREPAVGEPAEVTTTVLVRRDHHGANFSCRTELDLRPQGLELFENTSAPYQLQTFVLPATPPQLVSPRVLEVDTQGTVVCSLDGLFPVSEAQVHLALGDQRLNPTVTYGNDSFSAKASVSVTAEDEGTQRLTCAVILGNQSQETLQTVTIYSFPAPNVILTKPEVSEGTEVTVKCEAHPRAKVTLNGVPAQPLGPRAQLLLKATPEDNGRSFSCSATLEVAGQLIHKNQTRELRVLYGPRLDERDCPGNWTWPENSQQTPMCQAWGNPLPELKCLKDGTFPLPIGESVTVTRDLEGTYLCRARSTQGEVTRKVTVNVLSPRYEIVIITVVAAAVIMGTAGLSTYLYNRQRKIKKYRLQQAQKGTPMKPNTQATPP
# [2] = target: T1, ICAM-1 protein antigen (R&D System) (human, UniProt P05362 28-480); assay: ELISA, ICAM-1 coated 100 ng/well, anti-human Ig-HRP
# T1 construct: The assay paragraphs say only 'ICAM-1 (R&D System)'; also called antigen ICAM-1; ICAM-1 antigen
# T1 sequence (P05362 28-480 limits assumed): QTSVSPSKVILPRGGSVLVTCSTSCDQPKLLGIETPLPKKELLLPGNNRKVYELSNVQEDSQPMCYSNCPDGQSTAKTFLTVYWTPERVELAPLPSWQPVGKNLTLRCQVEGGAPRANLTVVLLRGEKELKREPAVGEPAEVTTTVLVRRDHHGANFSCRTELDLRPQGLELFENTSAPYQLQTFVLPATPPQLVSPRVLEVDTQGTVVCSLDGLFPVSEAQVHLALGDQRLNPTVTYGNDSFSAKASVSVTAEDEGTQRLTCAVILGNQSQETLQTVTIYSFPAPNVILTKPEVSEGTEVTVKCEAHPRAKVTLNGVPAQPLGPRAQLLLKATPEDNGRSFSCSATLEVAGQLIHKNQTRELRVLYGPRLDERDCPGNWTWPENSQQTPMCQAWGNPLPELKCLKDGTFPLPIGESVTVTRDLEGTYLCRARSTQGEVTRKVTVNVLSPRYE
# Experimental: The antigen ICAM-1 (ICAM-1; R&D System) was coated on a 96 well plate at 100 ng per well, followed by blocking. The amount of the primary antibody was serially diluted twice from 80 ng/ml and bound for 1 hour at 37° C. and a secondary antibody diluted 1:10000 with goat anti-Human Ig-HRP conjugate (Jackson ImmunoResearch) was combined at 37° C. for 30 minutes. Each step was washed three times and reacted with TMB (3,3′,5,5′-Tetramethylbenzidine). After the reaction was stopped by treatment with 1N H₂SO₄ solution in the same amount (100 ul) as the TMB solution, the OD value was measured at 450 nm.
# [3] = target: T1, ICAM-1 protein antigen (R&D System); assay: BLI (Octet), antibody coupled to AR2G amine-reactive sensor, ICAM-1 in solution at 5 concentrations
# Experimental: The Octet system (ForteBio) was used to compare the affinity of the H17L1 and H17L4 humanized antibodies to the antigen with the parent antibody. Each of three antibodies was attached to the amine reactive Bio-sensor AR2G (ForteBio), and 5 different concentrations of ICAM-1 antigen solution were added to induce antigen/antibody reactions to occur. Using the antigen/antibody reaction results, the binding constant (Kon) and the dissociation constant (Koff) were measured, and the affinity (KD) was calculated, and the results are shown in Table 10 and FIG. 8: […]
Molecule,% Gated (marker M1) [1],Mean (marker All) [1],Mean (marker M1) [1],OD 450 nm at 2.5 ng/ml antibody [2],OD 450 nm at 5 ng/ml antibody [2],OD 450 nm at 10 ng/ml antibody [2],OD 450 nm at 20 ng/ml antibody [2],OD 450 nm at 40 ng/ml antibody [2],OD 450 nm at 80 ng/ml antibody [2],Kd [3],koff [3],kon [3]
Negative control,0.58%,3.9,91,,,,,,,,,
B1,,,,0.118 OD (450 nm),0.182 OD (450 nm),0.298 OD (450 nm),0.473 OD (450 nm),0.724 OD (450 nm),1.14 OD (450 nm),10.3 nM,0.00169 s⁻¹,165000 M⁻¹ s⁻¹
B2,,,,0.135 OD (450 nm),0.201 OD (450 nm),0.344 OD (450 nm),0.567 OD (450 nm),0.848 OD (450 nm),1.2 OD (450 nm),,,
B3,,,,0.136 OD (450 nm),0.236 OD (450 nm),0.349 OD (450 nm),0.637 OD (450 nm),0.983 OD (450 nm),1.24 OD (450 nm),3.62 nM,0.000929 s⁻¹,256000 M⁻¹ s⁻¹
B4,,,,0.119 OD (450 nm),0.186 OD (450 nm),0.297 OD (450 nm),0.506 OD (450 nm),0.802 OD (450 nm),1.11 OD (450 nm),3.43 nM,0.000853 s⁻¹,249000 M⁻¹ s⁻¹
B5,,,,0.128 OD (450 nm),0.208 OD (450 nm),0.35 OD (450 nm),0.592 OD (450 nm),0.862 OD (450 nm),1.25 OD (450 nm),,,
B6,,,,0.115 OD (450 nm),0.189 OD (450 nm),0.305 OD (450 nm),0.52 OD (450 nm),0.832 OD (450 nm),1.23 OD (450 nm),,,
